PMC3919806

Target: Lrp4-myc (mouse full length Lrp4) (mouse) (UniProt Q8VI56)
Chain of UniProt Q8VI56 (Q8VI56 21-1905): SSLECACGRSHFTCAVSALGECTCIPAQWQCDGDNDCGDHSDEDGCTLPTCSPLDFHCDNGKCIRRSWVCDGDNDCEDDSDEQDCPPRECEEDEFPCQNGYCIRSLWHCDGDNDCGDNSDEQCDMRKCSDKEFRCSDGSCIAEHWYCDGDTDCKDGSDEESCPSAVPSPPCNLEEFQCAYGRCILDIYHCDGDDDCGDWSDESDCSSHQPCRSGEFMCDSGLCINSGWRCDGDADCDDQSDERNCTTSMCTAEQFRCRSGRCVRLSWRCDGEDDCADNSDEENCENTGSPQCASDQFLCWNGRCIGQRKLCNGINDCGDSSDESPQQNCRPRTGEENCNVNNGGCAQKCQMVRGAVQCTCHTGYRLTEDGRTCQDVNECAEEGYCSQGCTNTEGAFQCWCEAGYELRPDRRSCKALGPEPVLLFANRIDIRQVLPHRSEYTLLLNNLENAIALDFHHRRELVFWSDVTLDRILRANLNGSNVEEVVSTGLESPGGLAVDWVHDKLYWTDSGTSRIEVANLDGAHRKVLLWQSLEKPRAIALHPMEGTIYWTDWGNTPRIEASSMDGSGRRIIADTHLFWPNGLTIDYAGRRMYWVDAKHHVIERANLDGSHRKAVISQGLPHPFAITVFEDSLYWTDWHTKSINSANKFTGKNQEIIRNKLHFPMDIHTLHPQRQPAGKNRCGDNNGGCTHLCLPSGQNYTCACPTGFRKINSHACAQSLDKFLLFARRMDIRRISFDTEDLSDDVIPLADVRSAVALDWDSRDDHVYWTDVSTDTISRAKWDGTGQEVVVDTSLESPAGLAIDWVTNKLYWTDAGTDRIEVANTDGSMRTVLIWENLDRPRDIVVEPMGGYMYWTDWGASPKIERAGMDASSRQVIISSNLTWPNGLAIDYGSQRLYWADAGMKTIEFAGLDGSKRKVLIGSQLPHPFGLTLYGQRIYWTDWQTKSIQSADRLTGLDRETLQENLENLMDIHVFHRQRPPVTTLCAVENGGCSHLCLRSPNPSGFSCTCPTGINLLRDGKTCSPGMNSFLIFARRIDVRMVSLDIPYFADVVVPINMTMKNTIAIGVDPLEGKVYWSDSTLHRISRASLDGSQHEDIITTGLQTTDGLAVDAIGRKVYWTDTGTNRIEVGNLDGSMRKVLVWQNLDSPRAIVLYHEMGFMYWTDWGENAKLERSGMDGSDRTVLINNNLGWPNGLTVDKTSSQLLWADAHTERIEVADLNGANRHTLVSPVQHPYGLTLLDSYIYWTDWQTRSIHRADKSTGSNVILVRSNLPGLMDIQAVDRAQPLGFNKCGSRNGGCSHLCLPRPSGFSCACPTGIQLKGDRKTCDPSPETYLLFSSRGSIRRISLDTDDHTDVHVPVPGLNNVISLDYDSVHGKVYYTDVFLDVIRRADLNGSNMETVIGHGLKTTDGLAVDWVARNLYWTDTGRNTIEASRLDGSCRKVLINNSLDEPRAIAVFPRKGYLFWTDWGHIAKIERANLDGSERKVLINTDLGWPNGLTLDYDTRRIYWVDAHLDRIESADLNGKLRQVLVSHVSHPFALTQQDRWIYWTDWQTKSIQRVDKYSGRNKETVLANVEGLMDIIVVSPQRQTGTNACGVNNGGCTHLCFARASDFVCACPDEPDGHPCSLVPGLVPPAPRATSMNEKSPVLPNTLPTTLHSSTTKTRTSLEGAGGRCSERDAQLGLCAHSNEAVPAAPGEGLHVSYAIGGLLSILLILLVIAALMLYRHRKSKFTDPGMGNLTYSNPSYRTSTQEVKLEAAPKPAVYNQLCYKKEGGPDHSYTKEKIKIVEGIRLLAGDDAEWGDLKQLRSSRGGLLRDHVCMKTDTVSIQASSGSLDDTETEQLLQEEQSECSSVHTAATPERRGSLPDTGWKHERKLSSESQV

- AChR clustering on differentiated C2C12 myotubes, 16 h (area of AChR clusters normalized to myotube area), EC50: 440 pM
Substance: NT-1654, C-terminal 44 kDa fragment of murine agrin (from UniProt A2ASQ1 1519-1950) (domain or fragment)
